Experimental data published in patent US20250215059A1 (REGENTS OF THE UNIVERSITY OF COLORADO A BODY CORPORATE, published 2025).
Each block holds one binder with its values, some of them ahead of it.

What was measured:
[1] = biological target: T1, tau aggregates in HEK293 tau biosensor cells (4R repeat domain of tau (K18) with the P301S mutation fused to … (UniProt P10636-8 244-372)); assay: Halo (JF646) imaging in seeded HEK293 tau biosensor cells
T1 construct: domain: 4R repeat domain of tau (K18); Aggregated, insoluble form inside cells; the aggregates are seeded with brain homogenate of tau transgenic mice and may hold other proteins and RNA; Number of chains in an aggregate not defined; also called cytoplasmic tau aggregates; nuclear tau aggregates; not shown: CFP or YFP fused to the repeat domain

[2] = biological target: T1, tau aggregates in HEK293 tau biosensor …; assay: cell-based or functional assay

T1 sequence (P10636 561-689 P618S): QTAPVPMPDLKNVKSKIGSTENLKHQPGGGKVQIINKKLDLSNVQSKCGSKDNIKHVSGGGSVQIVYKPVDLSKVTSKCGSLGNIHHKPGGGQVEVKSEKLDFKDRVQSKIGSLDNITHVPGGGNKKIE

binding result [1]: no binding
B1: SRRM2_6-Halo (other)
chain: MYNGIGLPTPRGSGTNGYVQRNLSLVRGRRGERPDYKGEEELRRLEAALVKRPNPDILDHERKRRVELRCLELEEMMEEQGYEEQQIQEKVATFRLMLLEKDVNPGGKEETPGQRPAVTETHQLAELNEKKNERLRAAFGISDSYVDGSSFDPQRRAREAKQPAPEPPKPYSLVRESSSSRSPTPKQKKKKKKKDRGRRSESSSPRRERKKSSKKKKHRSESESKKRKHRSPTPKSKRKSKDKKRKRSRSTTPAPKSRRAHRSTSADSASSSDTSRSRSRSAAAKTHTTALAGRSPSPASGRRGEGDAPFSEPGTTSTQRPSSPETATKQPSSPYEDKDKDKKEKSATRPSPSPERSSTGPEPPAPTPLLAERHGGSPQPLATTPLSQEPVNPPSEASPTRDRSPPKSPEKLPQSSSSESSPPSPQPTKVSRHASSSPESPKPAPAPGSHREISSSPTSKNRSHGRAKRDKSHSHTPSRRMGRSRSPATAKRGRSRSRTPTKRGHSRSRSPQWRRSRSAQRWGRSRSPQRRGRSRSPQRPGWSRSRNTQRRGRSRSARMAEIGTGFPFDPHYVEVLGERMHYVDVGPRDGTPVLFLHGNPTSSYVWRNIIPHVAPTHRCIAPDLIGMGKSDKPDLGYFFDDHVRFMDAFIEALGLEEVVLVIHDWGSALGFHWAKRNPERVKGIAFMEFIRPIPTWDEWPEFARETFQAFRTTDVGRKLIIDQNVFIEGTLPMGVVRPLTEVEMDHYREPFLNPVDREPLWRFPNELPIAGEPANIVALVEEYMDWLHQSPVPKLLFWGTPGVLIPPAEAARLAKSLPNCKAVDIGPGLNLLQEDNPDLIGSEIARWLSTLEISG
modifications: JF646 Halo ligand covalently bound to the Halo tag
notes: also called truncation 6

binding result [1]: no binding
B2: SRRM2_7-Halo (other)
chain: MYNGIGLPTPRGSGTNGYVQRNLSLVRGRRGERPDYKGEEELRRLEAALVKRPNPDILDHERKRRVELRCLELEEMMEEQGYEEQQIQEKVATFRLMLLEKDVNPGGKEETPGQRPAVTETHQLAELNEKKNERLRAAFGISDSYVDGSSFDPQRRAREAKQPAPEPPKPYSLVRESSSSRSPTPKQKKKKKKKDRGRRSESSSPRRERKKSSKKKKHRSESESKKRKHRSPTPKSKRKSKDKKRKRSRSTTPAPKSRRAHRSTSADSASSSDTSRSRSRSAAAKTHTTALAGRSPSPASGRRGEGDAPFSEPGTTSTQRPSSPETATKQPSSPYEDKDKDKKEKSATRPSPSPERSSTGPEPPAPTPLLAERHGGSPQPLATTPLSQEPVNPPSEASPTRDRSPPKSPEKLPQSSSSESSPPSPQPTKVMAEIGTGFPFDPHYVEVLGERMHYVDVGPRDGTPVLFLHGNPTSSYVWRNIIPHVAPTHRCIAPDLIGMGKSDKPDLGYFFDDHVRFMDAFIEALGLEEVVLVIHDWGSALGFHWAKRNPERVKGIAFMEFIRPIPTWDEWPEFARETFQAFRTTDVGRKLIIDQNVFIEGTLPMGVVRPLTEVEMDHYREPFLNPVDREPLWRFPNELPIAGEPANIVALVEEYMDWLHQSPVPKLLFWGTPGVLIPPAEAARLAKSLPNCKAVDIGPGLNLLQEDNPDLIGSEIARWLSTLEISG
modifications: JF646 Halo ligand covalently bound to the Halo tag
notes: also called truncation 7

binding result [1]: no binding
B4: SRRM2_5-Halo (other)
chain: MYNGIGLPTPRGSGTNGYVQRNLSLVRGRRGERPDYKGEEELRRLEAALVKRPNPDILDHERKRRVELRCLELEEMMEEQGYEEQQIQEKVATFRLMLLEKDVNPGGKEETPGQRPAVTETHQLAELNEKKNERLRAAFGISDSYVDGSSFDPQRRAREAKQPAPEPPKPYSLVRESSSSRSPTPKQKKKKKKKDRGRRSESSSPRRERKKSSKKKKHRSESESKKRKHRSPTPKSKRKSKDKKRKRSRSTTPAPKSRRAHRSTSADSASSSDTSRSRSRSAAAKTHTTALAGRSPSPASGRRGEGDAPFSEPGTTSTQRPSSPETATKQPSSPYEDKDKDKKEKSATRPSPSPERSSTGPEPPAPTPLLAERHGGSPQPLATTPLSQEPVNPPSEASPTRDRSPPKSPEKLPQSSSSESSPPSPQPTKVSRHASSSPESPKPAPAPGSHREISSSPTSKNRSHGRAKRDKSHSHTPSRRMGRSRSPATAKRGRSRSRTPTKRGHSRSRSPQWRRSRSAQRWGRSRSPQRRGRSRSPQRPGWSRSRNTQRRGRSRSARRGRSHSRSPATRGRSRSRTPARRGRSRSRTPARRRSRSRTPTRRRSRSRTPARRGRSRSRTPARRRSRTRSPVRRRSRSRSPARRSGRSRSRTPARRGRSRSRTPARRGRSRSRTPARRSGRSRSRTPARRGRSRSRTPRRGRSRSRSLVRRGRSHSRTPQRRGRSGSSSERKNKSRTSQRRSRSNSSPEMKKSRISSRRSRSLSSPRSKAKSRLSLRRSLSGSSPCPKQKSQTPPRRSRSGSSQPKMAEIGTGFPFDPHYVEVLGERMHYVDVGPRDGTPVLFLHGNPTSSYVWRNIIPHVAPTHRCIAPDLIGMGKSDKPDLGYFFDDHVRFMDAFIEALGLEEVVLVIHDWGSALGFHWAKRNPERVKGIAFMEFIRPIPTWDEWPEFARETFQAFRTTDVGRKLIIDQNVFIEGTLPMGVVRPLTEVEMDHYREPFLNPVDREPLWRFPNELPIAGEPANIVALVEEYMDWLHQSPVPKLLFWGTPGVLIPPAEAARLAKSLPNCKAVDIGPGLNLLQEDNPDLIGSEIARWLSTLEISG
modifications: JF646 Halo ligand covalently bound to the Halo tag
notes: also called truncation 5

Further lines, the binder ahead of its results:

B3: SRRM2_4-Halo (other)
chain: MYNGIGLPTPRGSGTNGYVQRNLSLVRGRRGERPDYKGEEELRRLEAALVKRPNPDILDHERKRRVELRCLELEEMMEEQGYEEQQIQEKVATFRLMLLEKDVNPGGKEETPGQRPAVTETHQLAELNEKKNERLRAAFGISDSYVDGSSFDPQRRAREAKQPAPEPPKPYSLVRESSSSRSPTPKQKKKKKKKDRGRRSESSSPRRERKKSSKKKKHRSESESKKRKHRSPTPKSKRKSKDKKRKRSRSTTPAPKSRRAHRSTSADSASSSDTSRSRSRSAAAKTHTTALAGRSPSPASGRRGEGDAPFSEPGTTSTQRPSSPETATKQPSSPYEDKDKDKKEKSATRPSPSPERSSTGPEPPAPTPLLAERHGGSPQPLATTPLSQEPVNPPSEASPTRDRSPPKSPEKLPQSSSSESSPPSPQPTKVSRHASSSPESPKPAPAPGSHREISSSPTSKNRSHGRAKRDKSHSHTPSRRMGRSRSPATAKRGRSRSRTPTKRGHSRSRSPQWRRSRSAQRWGRSRSPQRRGRSRSPQRPGWSRSRNTQRRGRSRSARRGRSHSRSPATRGRSRSRTPARRGRSRSRTPARRRSRSRTPTRRRSRSRTPARRGRSRSRTPARRRSRTRSPVRRRSRSRSPARRSGRSRSRTPARRGRSRSRTPARRGRSRSRTPARRSGRSRSRTPARRGRSRSRTPRRGRSRSRSLVRRGRSHSRTPQRRGRSGSSSERKNKSRTSQRRSRSNSSPEMKKSRISSRRSRSLSSPRSKAKSRLSLRRSLSGSSPCPKQKSQTPPRRSRSGSSQPKAKSRTPPRRSRSSSSPPPKQKSKTPSRQSHSSSSPHPKVKSGTPPRQGSITSPQANEQSVTPQRRSCFESSPDPELKSRTPSRHSCSGSSPPRVKSSTPPRQSPSRSSSPQPKVKAIISPRQRSHSGSSSPSPSRVTSRTTPRRSRSVSPCSNVESRLLPRYSHSGSSSPDTKVKPETPPRQSHSGSISPYPKVKAQTPPGPSLSGSKSPCPQEKSKDSLVQSCPGSLSLCAGVKSSTPPGESYFGVSSLQLKGQSQTSPDHRSDTSSPEVRQSHSESPSLQSKSQTSPKGGRSRSSSPVTELASRSPIRQDRGEFSASPMLKSGMSPEQSRFQSDSSSYPTVDSNSLLGQSRLETAESKEKMALPPQEDATASPPRQKDKFSPFPVQDRPESSLVFKDTLRTPPRERSGAGSSPETKEQNSALPTSSQDEELMEVVEKSEEPAGQILSHLSSELKEMSTSNFESSPEVEERPAVSLTLDQSQSQASLEAVEVPSMASSWGGPHFSPEHKELSNSPLRENSFGSPLEFRNSGPLGTEMNTGFSSEVKEDLNGPFMAEIGTGFPFDPHYVEVLGERMHYVDVGPRDGTPVLFLHGNPTSSYVWRNIIPHVAPTHRCIAPDLIGMGKSDKPDLGYFFDDHVRFMDAFIEALGLEEVVLVIHDWGSALGFHWAKRNPERVKGIAFMEFIRPIPTWDEWPEFARETFQAFRTTDVGRKLIIDQNVFIEGTLPMGVVRPLTEVEMDHYREPFLNPVDREPLWRFPNELPIAGEPANIVALVEEYMDWLHQSPVPKLLFWGTPGVLIPPAEAARLAKSLPNCKAVDIGPGLNLLQEDNPDLIGSEIARWLSTLEISG
modifications: JF646 Halo ligand covalently bound to the Halo tag
notes: also called truncation 4
binding result [1]: no binding

B5: 42-polyserine-TNPO3-halo (other)
chain: MEGAKPTLQLVYQAVQALYHDPDPSGKERASFWLGELQRSVHAWEISDQLLQIRQDVESCYFAAQTMKMKIQTSFYELPTDSHASLRDSLLTHIQNLKDLSPVIVTQLALAIADLALQMPSWKGCVQTLVEKYSNDVTSLPFLLEILTVLPEEVHSRSLRIGANRRTEIIEDLAFYSSTVVSLLMTCVEKAGTDEKMLMKVFRCLGSWFNLGVLDSNFMANNKLLALLFEVLQQDKTSSNLHEAASDCVCSALYAIENVETNLPLAMQLFQGVLTLETAYHMAVAREDLDKVLNYCRIFTELCETFLEKIVCTPGQGLGDLRTLELLLICAGHPQYEVVEISFNFWYRLGEHLYKTNDEVIHGIFKAYIQRLLHALARHCQLEPDHEGVPEETDDFGEFRMRVSDLVKDLIFLIGSMECFAQLYSTLKEGNPPWEVTEAVLFIMAAIAKSVDPENNPTLVEVLEGVVRLPETVHTAVRYTSIELVGEMSEVVDRNPQFLDPVLGYLMKGLCEKPLASAAAKAIHNICSVCRDHMAQHFNGLLEIARSLDSFLLSPEAAVGLLKGTALVLARLPLDKITECLSELCSVQVMALKKLLSQEPSNGISSDPTVFLDRLAVIFRHTNPIVENGQTHPCQKVIQEIWPVLSETLNKHRADNRIVERCCRCLRFAVRCVGKGSAALLQPLVTQMVNVYHVHQHSCFLYLGSILVDEYGMEEGCRQGLLDMLQALCIPTFQLLEQQNGLQNHPDTVDDLFRLATRFIQRSPVTLLRSQVVIPILQWAIASTTLDHRDANCSVMRFLRDLIHTGVANDHEEDFELRKELIGQVMNQLGQQLVSQLLHTCCFCLPPYTLPDVAEVLWEIMQVDRPTFCRWLENSLKGLPKETTVGAVTVTHKQLTDFHKQVTSAEECKQVCWALRDFTRLFRGTELGSTSPVWWNSADISSSSSSSSSSSSSSSSSSSSSSSSSSSSSSSSSSSSSSSSSSGGSGGSGGGSEIGTGFPFDPHYVEVLGERMHYVDVGPRDGTPVLFLHGNPTSSYVWRNIIPHVAPTHRCIAPDLIGMGKSDKPDLGYFFDDHVRFMDAFIEALGLEEVVLVIHDWGSALGFHWAKRNPERVKGIAFMEFIRPIPTWDEWPEFARETFQAFRTTDVGRKLIIDQNVFIEGTLPMGVVRPLTEVEMDHYREPFLNPVDREPLWRFPNELPIAGEPANIVALVEEYMDWLHQSPVPKLLFWGTPGVLIPPAEAARLAKSLPNCKAVDIGPGLNLLQEDNPDLIGSEIARWLSTLEISG
tau aggregation by flow cytometry (FRET+ cells and integrated FRET density, normalized to no insert Halo) [2]: ~50 % decrease
